What was measured:
GST-MDM2-419–C (human) = GST-MDM2-419–C (human) (UniProt Q00987); test: SPR; GST-tagged MDM2 variants captured on a CM-5 chip with coupled anti-GST antibody; serial dilution of UbcH5B–Ub as analyte; 25 °C; 25 mM Tris-HCl pH 7.6, 150 mM NaCl, 0.1 mg/ml BSA, 1 mM DTT, 0.005% Tween-20; Biacore T200; GST alone subtracted
[1] = biological target: GST-MDM2-350–C-T419D (human) (UniProt Q00987); test: as above
[2] = biological target: GST-MDM2-419–C-S429E/His-MDMX-418–C heterodimer (UniProt Q00987); test: as above
[3] = biological target: GST-MDM2-350–C/His-MDMX-428–C heterodimer (UniProt Q00987); test: as above
[4] = biological target: GST-MDM2-350–C-6D (human) (UniProt Q00987); test: as above
[5] = biological target: GST-MDM2-419–C/His-MDMX-418–C heterodimer (UniProt Q00987); test: as above
[6] = biological target: GST-MDM2-419–C-pS429 (human) (UniProt Q00987); test: as above
[7] = biological target: GST-MDM2-419–C-S429E (human) (UniProt Q00987); test: as above
[8] = biological target: GST-cat MDM2-422–C (Felis catus (cat)) (UniProt Q7YRZ8); test: as above
[9] = biological target: GST-MDM2-350–C-S386D (human) (UniProt Q00987); test: as above
[10] = biological target: GST-cat MDM2-422–C-S429E (Felis catus (cat)) (UniProt Q7YRZ8); test: as above
[11] = biological target: GST-MDM2-350–C-S395D (human) (UniProt Q00987); test: as above
[12] = biological target: GST-MDM2-419–C-S429D (human) (UniProt Q00987); test: as above
[13] = biological target: GST-MDM2-350–C-S429D (human) (UniProt Q00987); test: as above
[14] = biological target: GST-MDM2-350–C-S407D (human) (UniProt Q00987); test: as above
[15] = biological target: GST-MDM2-350–C-6D/His-MDMX-428–C heterodimer (UniProt Q00987); test: as above
[16] = biological target: GST-MDM2-350–C-S425D (human) (UniProt Q00987); test: as above
[17] = biological target: GST-MDM2-419–C-S429E (human) (UniProt Q00987)

- Kd (GST-MDM2-419–C (human)): 14 µM
- Kd [1]: 13 µM
- Kd [2]: 17.8 µM
- Kd [3]: 36.7 µM
- Kd [4]: 6.7 µM
- Kd [5]: 23.4 µM
- Kd [6]: 5.1 µM
- Kd [7]: 6.4 µM
- Kd [8]: 16.8 µM
- Kd [9]: 13.7 µM
- Kd [10]: 6.8 µM
- Kd [11]: 13.7 µM
- Kd [12]: 7.1 µM
- Kd [13]: 7.8 µM
- Kd [14]: 13.7 µM
- Kd [15]: 29.2 µM
- Kd [16]: 13.4 µM
- rate of autoubiquitination of the MDM2 homodimer over time, S429E against WT [17]: 1.6 fold
Substance: UbcH5B S22R, C85K–Ub (stably conjugated E2–ubiquitin) (from UniProt P62837 1-147; P0CG47 1-76) (complex)
